From publication PMC5228031, “CDK4/6-dependent activation of DUB3 regulates cancer metastasis through SNAIL1” (Nature Communications, 2017)

Molecular target: T1, His-DUB3 (UniProt Q6R6M4 1-530)
T1 construct: cloned into PET28A; source: purified recombinant
T1 sequence (looked up): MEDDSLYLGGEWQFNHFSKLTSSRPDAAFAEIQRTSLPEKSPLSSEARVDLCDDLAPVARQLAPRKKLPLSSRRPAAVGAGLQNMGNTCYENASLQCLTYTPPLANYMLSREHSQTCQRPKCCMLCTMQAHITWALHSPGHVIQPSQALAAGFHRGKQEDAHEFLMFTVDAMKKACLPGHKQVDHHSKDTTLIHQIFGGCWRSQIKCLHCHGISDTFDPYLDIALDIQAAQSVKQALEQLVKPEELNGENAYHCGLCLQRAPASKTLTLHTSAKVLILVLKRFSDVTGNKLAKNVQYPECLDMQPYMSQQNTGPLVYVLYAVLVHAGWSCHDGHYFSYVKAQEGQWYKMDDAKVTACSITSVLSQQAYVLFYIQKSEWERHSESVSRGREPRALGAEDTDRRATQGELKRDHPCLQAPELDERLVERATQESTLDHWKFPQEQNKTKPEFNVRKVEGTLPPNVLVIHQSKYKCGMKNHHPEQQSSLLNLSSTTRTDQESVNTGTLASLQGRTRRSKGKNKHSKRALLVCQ
Assay: pull-down; purified recombinant GST or GST fusion protein and His-tagged protein incubated in vitro
Conditions: both partners purified

binding result: binds
B1: GST-CDK4 (enzyme, UniProt P11802 1-303, looked up)
chain: MATSRYEPVAEIGVGAYGTVYKARDPHSGHFVALKSVRVPNGGGGGGGLPISTVREVALLRRLEAFEHPNVVRLMDVCATSRTDREIKVTLVFEHVDQDLRTYLDKAPPPGLPAETIKDLMRQFLRGLDFLHANCIVHRDLKPENILVTSGGTVKLADFGLARIYSYQMALTPVVVTLWYRAPEVLLQSTYATPVDMWSVGCIFAEMFRRKPLFCGNSEADQLGKIFDLIGLPPEDDWPRDVSLPRGAFPPRGPRPVQSVVPEMEESGAQLLLEMLTFNPHKRISAFRALQHSYLHKDEGNPE
notes: also called CDK4/6; source: purified recombinant
